Abundance fitness data for 43 variants are collected here from the Human Domainome abundance scans (Beltran et al. 2025).

B1: Double-stranded RNA-specific adenosine deaminase, residues 296 to 358; numbered along this chain, P55265 (parent)
chain: MAEIKEKICDYLFNVSDSSALNLAKNIGLTKARDINAVLIDMERQGDVYRQGTTPPIWHLTDK

± gives the uncertainty stated by the source.

In this data set the parent is B1. Nature of the data set: abundance fitness (aPCA) (normalised: wild type 0, dead -1); higher = more abundant; growth selection in yeast, the domain comes from the species named. Particulars: Homo sapiens.
As for MAEIKEKICDYLPNVSDSSALNLAKNIGLTKARDINAVLIDMERQGDVYRQGTTPPIWHLTDK [F13P], the abundance fitness is -0.216 ± 0.082.

In the case of MAEIKEKICDYLCNVSDSSALNLAKNIGLTKARDINAVLIDMERQGDVYRQGTTPPIWHLTDK [F13C], the abundance fitness worked out at 0.19 ± 0.059.

With MAEIKEKICDYLYNVSDSSALNLAKNIGLTKARDINAVLIDMERQGDVYRQGTTPPIWHLTDK [F13Y], the abundance fitness amounted to 0.079 ± 0.077.

Turning to MAEIKEKICDYLQNVSDSSALNLAKNIGLTKARDINAVLIDMERQGDVYRQGTTPPIWHLTDK [F13Q], the abundance fitness is 0.541 ± 0.077.

MAEIKEKICDYLSNVSDSSALNLAKNIGLTKARDINAVLIDMERQGDVYRQGTTPPIWHLTDK [F13S]: the abundance fitness worked out at 0.403 ± 0.046.

As to MAEIKEKICDYLKNVSDSSALNLAKNIGLTKARDINAVLIDMERQGDVYRQGTTPPIWHLTDK [F13K], the abundance fitness was determined as 0.538 ± 0.066.

Take MAEIKEKICDYLANVSDSSALNLAKNIGLTKARDINAVLIDMERQGDVYRQGTTPPIWHLTDK [F13A]: the abundance fitness was 0.543 ± 0.051.

MAEIKEKICDYLHNVSDSSALNLAKNIGLTKARDINAVLIDMERQGDVYRQGTTPPIWHLTDK [F13H]: the abundance fitness amounted to 0.1 ± 0.1.

With MAEIKEKICDYLVNVSDSSALNLAKNIGLTKARDINAVLIDMERQGDVYRQGTTPPIWHLTDK [F13V], the abundance fitness was -0.061 ± 0.055.

As to MAEIKEKICDYLRNVSDSSALNLAKNIGLTKARDINAVLIDMERQGDVYRQGTTPPIWHLTDK [F13R], the abundance fitness is 0.577 ± 0.04.

For MAEIKEKICDYLWNVSDSSALNLAKNIGLTKARDINAVLIDMERQGDVYRQGTTPPIWHLTDK [F13W], the abundance fitness was -0.051 ± 0.055.

On to MAEIKEKICDYLMNVSDSSALNLAKNIGLTKARDINAVLIDMERQGDVYRQGTTPPIWHLTDK [F13M], for which the abundance fitness worked out at 0.339 ± 0.067.

In the case of MAEIKEKICDYLNNVSDSSALNLAKNIGLTKARDINAVLIDMERQGDVYRQGTTPPIWHLTDK [F13N], the abundance fitness came to 0.366 ± 0.1.

Take MAEIKEKICDYLENVSDSSALNLAKNIGLTKARDINAVLIDMERQGDVYRQGTTPPIWHLTDK [F13E]: the abundance fitness worked out at 0.383 ± 0.078.

Turning to MAEIKEKICDYLFNHSDSSALNLAKNIGLTKARDINAVLIDMERQGDVYRQGTTPPIWHLTDK [V15H], the abundance fitness stood at 0.489 ± 0.23.

On to MAEIKEKICDYLFNPSDSSALNLAKNIGLTKARDINAVLIDMERQGDVYRQGTTPPIWHLTDK [V15P], for which the abundance fitness was -0.64 ± 0.17.

For the variant MAEIKEKICDYLFNGSDSSALNLAKNIGLTKARDINAVLIDMERQGDVYRQGTTPPIWHLTDK [V15G], the abundance fitness was -0.377 ± 0.053.

On to MAEIKEKICDYLFNYSDSSALNLAKNIGLTKARDINAVLIDMERQGDVYRQGTTPPIWHLTDK [V15Y], for which the abundance fitness was -0.202 ± 0.096.

Consider MAEIKEKICDYLFNDSDSSALNLAKNIGLTKARDINAVLIDMERQGDVYRQGTTPPIWHLTDK [V15D], for which the abundance fitness was -0.463 ± 0.1.

On to MAEIKEKICDYLFNASDSSALNLAKNIGLTKARDINAVLIDMERQGDVYRQGTTPPIWHLTDK [V15A], for which the abundance fitness is -0.147 ± 0.055.

For MAEIKEKICDYLFNTSDSSALNLAKNIGLTKARDINAVLIDMERQGDVYRQGTTPPIWHLTDK [V15T], the abundance fitness is -0.392 ± 0.11.

Consider MAEIKEKICDYLFNWSDSSALNLAKNIGLTKARDINAVLIDMERQGDVYRQGTTPPIWHLTDK [V15W], for which the abundance fitness was -0.213 ± 0.063.

Regarding MAEIKEKICDYLFNCSDSSALNLAKNIGLTKARDINAVLIDMERQGDVYRQGTTPPIWHLTDK [V15C], the abundance fitness was -0.365 ± 0.078.

In the case of MAEIKEKICDYLFNRSDSSALNLAKNIGLTKARDINAVLIDMERQGDVYRQGTTPPIWHLTDK [V15R], the abundance fitness was -0.231 ± 0.049.

On to MAEIKEKICDYLFNQSDSSALNLAKNIGLTKARDINAVLIDMERQGDVYRQGTTPPIWHLTDK [V15Q], for which the abundance fitness was -0.288 ± 0.077.

With MAEIKEKICDYLFNFSDSSALNLAKNIGLTKARDINAVLIDMERQGDVYRQGTTPPIWHLTDK [V15F], the abundance fitness came to 0.045 ± 0.12.

Consider MAEIKEKICDYLFNESDSSALNLAKNIGLTKARDINAVLIDMERQGDVYRQGTTPPIWHLTDK [V15E], for which the abundance fitness is -0.025 ± 0.057.

For MAEIKEKICDYLFNISDSSALNLAKNIGLTKARDINAVLIDMERQGDVYRQGTTPPIWHLTDK [V15I], the abundance fitness was -0.2 ± 0.2.

Regarding MAEIKEKICDYLFNSSDSSALNLAKNIGLTKARDINAVLIDMERQGDVYRQGTTPPIWHLTDK [V15S], the abundance fitness was -0.137 ± 0.062.

On to MAEIKEKICDYLFNKSDSSALNLAKNIGLTKARDINAVLIDMERQGDVYRQGTTPPIWHLTDK [V15K], for which the abundance fitness was -0.089 ± 0.058.

As for MAEIKEKICDYLFNMSDSSALNLAKNIGLTKARDINAVLIDMERQGDVYRQGTTPPIWHLTDK [V15M], the abundance fitness was -0.203 ± 0.078.

On to MAEIKEKICDILFNVSDSSALNLAKNIGLTKARDINAVLIDMERQGDVYRQGTTPPIWHLTDK [Y11I], for which the abundance fitness was -0.214 ± 0.15.

For the variant MAEIKEKICDFLFNVSDSSALNLAKNIGLTKARDINAVLIDMERQGDVYRQGTTPPIWHLTDK [Y11F], the abundance fitness was -0.056 ± 0.11.

Turning to MAEIKEKICDSLFNVSDSSALNLAKNIGLTKARDINAVLIDMERQGDVYRQGTTPPIWHLTDK [Y11S], the abundance fitness was -0.255 ± 0.052.

Turning to MAEIKEKICDQLFNVSDSSALNLAKNIGLTKARDINAVLIDMERQGDVYRQGTTPPIWHLTDK [Y11Q], the abundance fitness is -0.204 ± 0.075.

Turning to MAEIKEKICDGLFNVSDSSALNLAKNIGLTKARDINAVLIDMERQGDVYRQGTTPPIWHLTDK [Y11G], the abundance fitness is -0.391 ± 0.049.

As for MAEIKEKICDTLFNVSDSSALNLAKNIGLTKARDINAVLIDMERQGDVYRQGTTPPIWHLTDK [Y11T], the abundance fitness was -0.341 ± 0.067.

As for MAEIKEKICDKLFNVSDSSALNLAKNIGLTKARDINAVLIDMERQGDVYRQGTTPPIWHLTDK [Y11K], the abundance fitness is -0.256 ± 0.057.

For the variant MAEIKEKICDPLFNVSDSSALNLAKNIGLTKARDINAVLIDMERQGDVYRQGTTPPIWHLTDK [Y11P], the abundance fitness is -0.175 ± 0.06.

Consider MAEIKEKICDVLFNVSDSSALNLAKNIGLTKARDINAVLIDMERQGDVYRQGTTPPIWHLTDK [Y11V], for which the abundance fitness was -0.359 ± 0.051.

Take MAEIKEKICDMLFNVSDSSALNLAKNIGLTKARDINAVLIDMERQGDVYRQGTTPPIWHLTDK [Y11M]: the abundance fitness is -0.429 ± 0.066.

In the case of MAEIKEKICDNLFNVSDSSALNLAKNIGLTKARDINAVLIDMERQGDVYRQGTTPPIWHLTDK [Y11N], the abundance fitness was -0.407 ± 0.16.

Turning to MAEIKEKICDRLFNVSDSSALNLAKNIGLTKARDINAVLIDMERQGDVYRQGTTPPIWHLTDK [Y11R], the abundance fitness was -0.376 ± 0.046.
